In the supplement of paper PMC10567573:

B1: VPS39 (parent)
chain: LRLENNHCHIEESEHVLKKAHKYS
B2: DVL3 (parent)
chain: YNPHPGFPELGYSYGGGSASSQHS

Variants of: B1
Experiment: protein stability index of a GFP-peptide fusion (GPS, HEK-293T) (PSI 1-6); higher = more stable
Details: c terminus: a fixed tail appended
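Further: lentivirally expressed fusions sorted by FACS into six bins by GFP to DsRed ratio, PSI derived from sequencing read proportions per bin multiplied by bin number.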

Protein stability index of substitutions, site by site:
R2: Q 4.11, D 4.26, K 3.12, G 4.24, V 2.44, A 3.68, Y 2.79, E 4.59, F 2.62, M 2.66, H 3.55, L 2.54, W 2.15, P 4.55, S 3.62, C 3.15, N 3.55, T 3.81, I 2.54
L1: T 4.32, K 4.2, C 3.29, F 2.3, D 4.36, Q 4.08, N 3.65, W 3.14, E 4.29, Y 4.1, H 4.02, A 3.91, G 4.6, R 3.48, M 2.99, V 2.29, I 3.44, S 4.19, P 3.79
L3: E 4.58, G 4.43, D 3.12, A 3.55, F 2.09

Variants of: B2
Experiment: as above
Details: c terminus: a fixed tail appended

Protein stability index, by site and new letter:
P5: I 2.4, C 2.22, S 2.64, H 2.36, K 2.31, W 2.2, F 2.44, E 3.27, R 2.37, T 2.36, A 2.58
S13: Q 3, F 1.95, A 2.95, V 1.71, R 2.85, I 2.24, M 2.67, C 1.78, Y 2.19, L 2.13, P 2.58, T 2.23, W 2.53
G6: F 2.42, E 3.84, S 2.69, V 2.7, H 2.67, K 3.05, W 1.74, Q 3.44, R 2.46, Y 2.17, C 2.53, M 2.74
G16: V 1.89, K 2.93, C 2.04, F 1.79, D 3.4, L 2.3, M 2.79, E 3.61
Y1: C 2.33, M 3.37, K 3.94, P 4.24, G 4.47, E 4.73, I 3, W 3.49, S 3.75, H 3.39, A 4.36, Q 4.53
S20: C 2.88, Q 2.66, M 2.46, T 2.58, E 2.95, D 3.09, G 2.97, F 2, R 2.73, H 2.59, A 3.01, L 2.2, Y 1.79, P 2.89
F7: L 3.35, M 3.19, N 3.38, Q 3.23, Y 2.68, H 2.98, E 2.7, D 2.44, W 2.14, A 2.6, P 3.44, T 3.44, I 2.87, R 2.86
P3: Y 3.18, K 3.43, G 2.19, F 2.7, R 3.17, D 2.81, Q 3.05, C 3.32, W 2.51, H 2.95, I 2.86, S 2.67, A 3.07
G11: S 2.71, K 3.13, C 2.3, Y 2.66, I 2.24, T 2.76, V 2.44, D 2.82, H 2.46, E 3.4, Q 3.29, M 3.03
H4: Y 2.35, V 2.75, Q 2.56, E 2.7, D 3.9, P 2.29, C 2.58, G 2.01, F 2.16, S 2.1, N 2.73
Q22: E 2.85, R 2.58, I 2.33, F 2.88, P 2.98, L 1.67, S 2.71, T 3.69, K 3.4, Y 2.4, M 2.08, A 2.23, D 3.41, H 2.73, V 2.33, G 2.62
G17: A 2.73, I 1.96, E 3.05, M 2.25, P 2.62, S 3.29, V 1.63, T 2.85, Y 2.23, Q 2.87, D 2.72, F 1.77, K 2.83
Y14: E 4.1, R 3.05, N 3.59, I 2.64, V 3.26, H 3.71, S 3.48, C 3.1, K 2.95, G 3.69, W 2.76
H23: C 2.38, E 2.6, S 2.62, V 2.32, N 2.99, Y 2.92, Q 2.58, R 3, A 2.62, T 3.2
L10: M 2.04, Q 3.18, K 3.05, H 3.4, V 3.17, F 2.92, W 1.3, C 3.06, S 3.16, G 2.94, I 2.6, Y 2.57
A19: V 2.03, D 3.01, E 2.92, P 2.74, K 2.94, C 2.19, T 2.53, I 2.3, Q 2.99, F 2.09
S18: M 2.08, E 3.19, Q 2.92, I 2.49, R 2.44, H 2.53, A 2.94, K 3.09, P 2.71, D 2.85, N 3, W 1.65, C 2.57
S21: G 2.61, C 2.1, A 3.1, E 2.96, F 1.88, V 3.41, W 1.95, I 2.56, H 2.55, K 2.54, N 2.62, Y 2.37, M 2.89, P 2.88, T 2.64, L 2.24
E9: K 1.8, Y 1.14, A 2.3, C 2.5, D 2.11, N 2.46, P 3.58, R 2.44, S 1.59, T 1.84
N2: M 2.55, E 3.75, T 2.23, S 2.72, L 2.16, P 1.97, K 3.28, F 2.32, V 1.82, G 3.06, C 2.12, R 3.09, A 1.96, W 2.48
G15: W 2.3, K 2.91, F 2.54, R 2.33, I 2.63, P 2.9, N 2.63, D 3.37, S 2.86, Y 1.82
Y12: I 2.06, S 3.15, A 2.87, D 4.19, L 2.03, Q 3.42, K 2.47, M 3.29, F 3.09, V 1.74, T 3.01
S24: M 2.44, I 2.56, H 2.33, R 1.87, N 2.42, F 2.14, G 3.11, P 3.36, L 2.62, W 2.03, Y 2.26
P8: L 2.12, G 3.26, Q 2.67, S 2.73, K 2.38, D 3.37, W 2.48, C 2.54, F 2.23, N 3, M 2.52, E 3.16, V 2.57, A 2.37
